Measurements published in the supplement of paper PMC6379048.

Columns and labels:
Assay in all cases: EC50 of free RNA motif oligo competing protein binding to immobilised probe
FUBP1 = biological target: T1, FUBP1 (UniProt Q96AE4)
T1 sequence: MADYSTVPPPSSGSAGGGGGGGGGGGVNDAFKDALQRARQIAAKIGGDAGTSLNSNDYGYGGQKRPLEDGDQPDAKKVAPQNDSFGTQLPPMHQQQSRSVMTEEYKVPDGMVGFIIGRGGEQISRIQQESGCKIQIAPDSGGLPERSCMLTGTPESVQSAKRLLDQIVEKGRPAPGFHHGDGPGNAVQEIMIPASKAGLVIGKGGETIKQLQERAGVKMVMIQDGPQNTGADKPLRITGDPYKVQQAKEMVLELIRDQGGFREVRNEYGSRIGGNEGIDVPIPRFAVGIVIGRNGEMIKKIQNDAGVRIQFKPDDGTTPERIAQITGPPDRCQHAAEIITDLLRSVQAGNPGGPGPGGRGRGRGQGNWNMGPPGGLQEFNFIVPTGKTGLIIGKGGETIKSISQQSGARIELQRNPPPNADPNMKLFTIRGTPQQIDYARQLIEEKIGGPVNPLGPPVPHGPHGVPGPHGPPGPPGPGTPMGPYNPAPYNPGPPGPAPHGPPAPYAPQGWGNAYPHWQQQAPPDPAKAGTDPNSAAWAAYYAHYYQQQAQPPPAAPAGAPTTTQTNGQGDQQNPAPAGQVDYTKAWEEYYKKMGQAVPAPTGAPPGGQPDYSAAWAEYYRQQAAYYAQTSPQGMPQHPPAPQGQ
How it was run: (§1)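 HEK293-FT lysate (2.5 mg protein/well) was treated with free RNA oligos (0 nM to 30 μM) for 1 h at 4°C, then with the same oligos on NHS-Sepharose beads for 30 min at 4°C. Bound proteins were quantified by label-free LC-MS/MS relative to the control. EC50 came from a four-parameter log-logistic fit, and Kd is EC50 times a protein-dependent depletion factor.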

PARP12 = biological target: T2, PARP12 (UniProt Q9H0J9)
T2 sequence: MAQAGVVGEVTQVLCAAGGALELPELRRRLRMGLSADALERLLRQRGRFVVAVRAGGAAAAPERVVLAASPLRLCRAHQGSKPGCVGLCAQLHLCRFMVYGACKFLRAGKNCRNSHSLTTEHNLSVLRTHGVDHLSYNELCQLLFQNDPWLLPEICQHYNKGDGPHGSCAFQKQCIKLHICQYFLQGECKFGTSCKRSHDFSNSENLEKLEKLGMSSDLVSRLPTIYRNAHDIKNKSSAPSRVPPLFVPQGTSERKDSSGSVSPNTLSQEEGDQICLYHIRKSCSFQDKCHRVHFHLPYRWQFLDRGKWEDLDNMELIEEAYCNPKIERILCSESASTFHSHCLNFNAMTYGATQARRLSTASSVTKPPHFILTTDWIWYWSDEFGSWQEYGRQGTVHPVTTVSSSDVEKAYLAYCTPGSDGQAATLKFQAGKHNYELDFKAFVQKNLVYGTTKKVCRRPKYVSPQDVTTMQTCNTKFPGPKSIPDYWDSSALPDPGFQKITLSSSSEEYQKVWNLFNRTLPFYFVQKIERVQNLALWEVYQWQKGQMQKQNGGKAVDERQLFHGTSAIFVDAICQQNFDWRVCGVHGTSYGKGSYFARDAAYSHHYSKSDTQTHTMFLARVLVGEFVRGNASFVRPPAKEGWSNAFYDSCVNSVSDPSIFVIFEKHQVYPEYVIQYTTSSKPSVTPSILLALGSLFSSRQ
How it was run: as §1

PCBP2 = PCBP2 (UniProt Q15366)
Sequence of PCBP2 (Q15366 whole entry): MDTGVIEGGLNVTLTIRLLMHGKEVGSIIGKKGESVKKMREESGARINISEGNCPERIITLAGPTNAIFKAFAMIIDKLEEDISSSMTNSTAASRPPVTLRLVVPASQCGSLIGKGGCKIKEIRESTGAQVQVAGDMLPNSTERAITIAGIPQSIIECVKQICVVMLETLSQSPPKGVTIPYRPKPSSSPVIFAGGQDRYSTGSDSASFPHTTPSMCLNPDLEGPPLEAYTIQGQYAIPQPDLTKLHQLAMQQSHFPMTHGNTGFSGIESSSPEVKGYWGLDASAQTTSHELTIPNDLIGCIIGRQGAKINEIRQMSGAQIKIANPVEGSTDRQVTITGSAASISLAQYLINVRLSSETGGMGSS
How it was run: as §1

SRSF7 = biological target: T3, SRSF7 (UniProt Q16629)
T3 sequence: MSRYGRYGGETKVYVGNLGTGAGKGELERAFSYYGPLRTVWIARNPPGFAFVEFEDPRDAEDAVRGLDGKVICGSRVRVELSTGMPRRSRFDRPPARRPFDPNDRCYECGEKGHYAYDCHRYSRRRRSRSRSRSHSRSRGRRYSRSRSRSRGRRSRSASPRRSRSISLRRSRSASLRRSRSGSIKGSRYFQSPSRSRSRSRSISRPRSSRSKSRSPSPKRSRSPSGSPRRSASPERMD
How it was run: as §1

MRPS23 = MRPS23 (UniProt Q9Y3D9)
How it was run: as §1

MRPS7 = MRPS7 (UniProt Q9Y2R9)
How it was run: as §1

MRPS27 = MRPS27 (UniProt Q92552)
How it was run: as §1

MYEF2 = biological target: T4, MYEF2 (UniProt Q9P2K5)
T4 sequence: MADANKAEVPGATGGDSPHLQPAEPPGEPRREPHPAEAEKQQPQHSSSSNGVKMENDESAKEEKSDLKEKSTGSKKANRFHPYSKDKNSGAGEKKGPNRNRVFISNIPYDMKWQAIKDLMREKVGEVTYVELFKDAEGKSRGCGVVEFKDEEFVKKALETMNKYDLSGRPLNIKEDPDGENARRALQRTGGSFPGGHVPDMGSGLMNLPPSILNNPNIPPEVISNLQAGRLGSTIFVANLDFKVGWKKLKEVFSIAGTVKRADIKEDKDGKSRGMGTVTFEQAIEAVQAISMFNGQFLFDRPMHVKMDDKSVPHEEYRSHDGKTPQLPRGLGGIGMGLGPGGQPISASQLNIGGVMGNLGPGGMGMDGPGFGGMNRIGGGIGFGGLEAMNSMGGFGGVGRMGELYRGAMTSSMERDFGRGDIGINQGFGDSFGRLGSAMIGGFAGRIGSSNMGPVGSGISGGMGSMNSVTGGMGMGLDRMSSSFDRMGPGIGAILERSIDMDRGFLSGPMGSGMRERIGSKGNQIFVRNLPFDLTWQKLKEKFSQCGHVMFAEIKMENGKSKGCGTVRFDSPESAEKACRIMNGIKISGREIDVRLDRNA
How it was run: as §1

Question: AAUAAA was tested. Which EC50 (FUBP1) did it give?
Answer: 5.75 µM

Question: And the EC50 (PARP12)?
Answer: 11.2 µM

Question: What does the source list for CUGUCCU?
Answer: EC50 (PCBP2): 3.39 µM; EC50 (SRSF7): 3.02 µM

Question: Which EC50 (MRPS23) does the source give for UAUUUAU here?
Answer: 0.04 µM

Question: What about the EC50 (MRPS7) of the same sequence?
Answer: 0.0842 µM

Question: And the EC50 (MRPS27)?
Answer: 0.0825 µM

Question: And the EC50 (MYEF2)?
Answer: 3.8 µM
